Reference: patent US20200079833A1 (AstraZeneca / MedImmune, published 2020)
Starred links: 1 amine or outer side, 2 acyl side, 3 side chain; linkers in the order of their positions; H or OH if unused. Non-standard residues stand in square brackets, D forms with d. Groups on a side chain read outwards from the residue. Primed or numbered codes have the meaning given here. No end group written: not given here. *: point of attachment. γGlu = O=C(O)[C@H](CCC(=O)[*:2])N[*:1]; Palmitoyl = CCCCCCCCCCCCCCCC(=O)*; αMeF = C[C@](N)(Cc1ccccc1)C(=O)O; αMeK = C[C@](N)(CCCCN)C(=O)O; Lauroyl = CCCCCCCCCCCC(=O)*; PEG2′ = not defined here; Aib = CC(C)(N)C(=O)O

T1: glucose-dependent insulinotropic peptide (gastric inhibitory polypeptide) receptor (GIPR), primary cAMP assay (human, UniProt P48546 22-466)
T1 sequence (looked up): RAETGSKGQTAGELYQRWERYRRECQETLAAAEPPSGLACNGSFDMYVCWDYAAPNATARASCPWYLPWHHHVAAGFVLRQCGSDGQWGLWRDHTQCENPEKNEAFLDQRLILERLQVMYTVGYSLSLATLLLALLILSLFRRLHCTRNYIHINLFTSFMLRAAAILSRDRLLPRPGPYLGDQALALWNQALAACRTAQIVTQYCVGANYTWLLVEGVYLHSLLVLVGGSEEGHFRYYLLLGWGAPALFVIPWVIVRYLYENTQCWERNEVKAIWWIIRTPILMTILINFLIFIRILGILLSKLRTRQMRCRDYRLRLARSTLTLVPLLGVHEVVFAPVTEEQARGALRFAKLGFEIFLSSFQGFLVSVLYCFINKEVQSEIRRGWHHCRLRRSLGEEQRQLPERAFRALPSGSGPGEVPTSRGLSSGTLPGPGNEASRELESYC

T2: GLP-1R in the INS1e assay (UniProt P32301 22-463, limits assumed)
T2 sequence (looked up): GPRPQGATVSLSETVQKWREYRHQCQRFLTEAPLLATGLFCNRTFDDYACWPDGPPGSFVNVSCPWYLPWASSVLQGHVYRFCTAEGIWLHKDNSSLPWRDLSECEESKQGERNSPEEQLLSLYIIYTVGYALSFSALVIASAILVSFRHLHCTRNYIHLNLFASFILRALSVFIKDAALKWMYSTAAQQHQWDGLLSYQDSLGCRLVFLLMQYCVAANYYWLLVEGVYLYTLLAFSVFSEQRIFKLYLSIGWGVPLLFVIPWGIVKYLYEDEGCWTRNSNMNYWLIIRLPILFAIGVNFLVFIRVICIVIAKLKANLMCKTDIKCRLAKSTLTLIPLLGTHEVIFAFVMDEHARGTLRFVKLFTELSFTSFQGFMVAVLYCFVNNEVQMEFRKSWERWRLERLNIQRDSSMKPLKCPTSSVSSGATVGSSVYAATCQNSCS


Columns and labels:
Test in all cases: cell-based or functional assay
[1] = molecular target: GLP-1 receptor (GLP-1R), primary cAMP assay (human, UniProt P43220 24-463)
[2] = molecular target: glucagon receptor (GCGR), primary cAMP assay (human, UniProt P47871 26-477)
[3] = molecular target: T1, glucose-dependent insulinotropic …
[4] = molecular target: T2, GLP-1R in the INS1e assay

Chain of glucagon receptor (GCGR), primary cAMP assay (P47871 26-477): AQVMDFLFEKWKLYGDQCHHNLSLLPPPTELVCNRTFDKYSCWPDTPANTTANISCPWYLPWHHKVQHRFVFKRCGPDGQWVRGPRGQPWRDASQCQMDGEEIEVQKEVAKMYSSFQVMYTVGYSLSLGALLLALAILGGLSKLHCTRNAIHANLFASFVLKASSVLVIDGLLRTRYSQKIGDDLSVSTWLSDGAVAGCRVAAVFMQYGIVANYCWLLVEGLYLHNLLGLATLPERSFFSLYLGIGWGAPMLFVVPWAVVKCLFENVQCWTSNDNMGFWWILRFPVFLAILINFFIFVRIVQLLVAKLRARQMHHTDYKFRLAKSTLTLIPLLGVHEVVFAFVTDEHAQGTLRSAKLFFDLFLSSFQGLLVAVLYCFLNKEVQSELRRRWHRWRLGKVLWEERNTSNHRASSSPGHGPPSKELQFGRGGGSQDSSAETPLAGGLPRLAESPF

| Primary assay EC50 (cAMP) Mean [1] | Primary assay EC50 (cAMP), n1 [1] | Primary assay EC50 (cAMP), n2 [1] | Primary assay EC50 (cAMP), n1 [2] | Primary assay EC50 (cAMP), n2 [2] | Primary assay EC50 (cAMP), n1 [3] | Primary assay EC50 (cAMP), n2 [3] | INS1e assay EC50 (cAMP) Mean [4] | INS1e assay EC50 (cAMP) n1 [4] | INS1e assay EC50 (cAMP) n2 [4] | Binder |
| --- | --- | --- | --- | --- | --- | --- | --- | --- | --- | --- |
| 0.014 nM | 0.0109 nM | 0.0171 nM | 22.2 nM | 22.2 nM | 22.2 nM | 22.2 nM | 6.02 nM | 6.86 nM | 5.17 nM | H[Aib]EGS[αMeF]TSDVSK([PEG2′-PEG2′-γGlu-Lauroyl])YLEGEAAEEFIK([PEG2′-PEG2′-γGlu-Lauroyl])WVVEGG-NH2 [SEQ ID NO: 240] |
| 0.0096 nM | 0.00755 nM | 0.0116 nM | 22.5 nM | 22.5 nM | 22.5 nM | 22.5 nM | 6.28 nM | 5.84 nM | 6.71 nM | H[Aib]EGS[αMeF]TSDVSK([PEG2′-PEG2′-γGlu-Lauroyl])FLEGEAAEEFIK([PEG2′-PEG2′-γGlu-Lauroyl])FVVEGG-NH2 [SEQ ID NO: 241] |
| 1.4 nM | 0.999 nM | 1.8 nM | 21.4 nM | 21.4 nM | 21.4 nM | 21.4 nM | 71.3 nM | 71.3 nM | 71.3 nM | H[Aib]EGS[αMeF]TSDVSK([PEG2′-PEG2′-γGlu-Palmitoyl])YLEGEAAEEFIK([PEG2′-PEG2′-γGlu-Palmitoyl])WVVEGG-NH2 [SEQ ID NO: 246] |
| 1.67 nM | 1.31 nM | 2.02 nM | 21.6 nM | 21.6 nM | 21.6 nM | 21.6 nM | 72.1 nM | 72.1 nM | 72.1 nM | H[Aib]EGS[αMeF]TSDVSK([PEG2′-PEG2′-γGlu-Palmitoyl])FLEGEAAEEFIK([PEG2′-PEG2′-γGlu-Palmitoyl])FVVEGG-NH2 [SEQ ID NO: 247] |
| 0.005 nM | 0.00377 nM | 0.0062 nM | 22.4 nM | 22.4 nM | 22.4 nM | 22.4 nM | 0.403 nM | 0.337 nM | 0.468 nM | H[Aib]EGS[αMeF]TSDVSK([PEG2′-PEG2′-γGlu-Lauroyl])FLEGEAA[αMeK]EFIK([PEG2′-PEG2′-γGlu-Lauroyl])FVVEGG-NH2 [SEQ ID NO: 248] |
| 0.0055 nM | 0.00447 nM | 0.00649 nM | 22.1 nM | 22.1 nM | 22.1 nM | 22.1 nM | 0.566 nM | 0.721 nM | 0.41 nM | H[Aib]EGS[αMeF]TSDVSK([PEG2′-PEG2′-γGlu-Lauroyl])YLEGEAA[αMeK]EFIK([PEG2′-PEG2′-γGlu-Lauroyl])WVVEGG-NH2 [SEQ ID NO: 249] |
| 0.0451 nM | 0.0292 nM | 0.061 nM | 21.6 nM | 21.6 nM | 21.6 nM | 21.6 nM | 38.1 nM | 36.7 nM | 39.4 nM | H[Aib]EGS[αMeF]TSDVSK([PEG2′-PEG2′-γGlu-Palmitoyl])FLEGEAA[αMeK]EFIK([PEG2′-PEG2′-γGlu-Palmitoyl])FVVEGG-NH2 [SEQ ID NO: 250] |
| 0.0311 nM | 0.016 nM | 0.0462 nM | 21.3 nM | 21.3 nM | 21.3 nM | 21.3 nM | 7.16 nM | 6.47 nM | 7.85 nM | H[Aib]EGS[αMeF]TSDVSK([PEG2′-PEG2′-γGlu-Palmitoyl])YLEGEAA[αMeK]EFIK([PEG2′-PEG2′-γGlu-Palmitoyl])WVVEGG-NH2 [SEQ ID NO: 251] |
| 0.0025 nM | 0.00288 nM | 0.00217 nM | 22.7 nM | 22.7 nM | 22.7 nM | 22.7 nM | 0.175 nM | 0.184 nM | 0.166 nM | H[Aib]EGS[αMeF]TSDVSK([PEG2′-PEG2′-γGlu-Lauroyl])YLEGEAA[αMeK]EFIAK([PEG2′-PEG2′-γGlu-Lauroyl])VVEGG-NH2 [SEQ ID NO: 252] |
| 0.0206 nM | 0.0234 nM | 0.0177 nM | 22.3 nM | 22.3 nM | 22.3 nM | 22.3 nM | 2.11 nM | 2.08 nM | 2.14 nM | H[Aib]EGS[αMeF]TSDVSK([PEG2′-PEG2′-γGlu-Lauroyl])YLEGEAA[αMeK]EFIAWK([PEG2′-PEG2′-γGlu-Lauroyl])VEGG-NH2 [SEQ ID NO: 253] |
| 0.0075 nM | 0.00946 nM | 0.00557 nM | 22.2 nM | 22.2 nM | 22.2 nM | 22.2 nM | 1.29 nM | 1.25 nM | 1.34 nM | H[Aib]EGS[αMeF]TSDK([PEG2′-PEG2′-γGlu-Lauroyl])SSYLEGEAA[αMeK]EFIK([PEG2′-PEG2′-γGlu-Lauroyl])WVVEGG-NH2 [SEQ ID NO: 256] |
| 0.0084 nM | 0.00436 nM | 0.0124 nM | 22.8 nM | 22.8 nM | 22.8 nM | 22.8 nM | 0.577 nM | 0.812 nM | 0.342 nM | H[Aib]EGS[αMeF]TSDK([PEG2′-PEG2′-γGlu-Lauroyl])SSYLEGEAA[αMeK]EFIAK([PEG2′-PEG2′-γGlu-Lauroyl])VVEGG-NH2 [SEQ ID NO: 257] |
